Drawing on publication PMC12828031, this text covers FRET efficiency for 2 substances.

One assay concerns the target EGFP-vinculin (UniProt P18206). The experiment in a line: FRET or BRET; multiphoton TCSPC-FLIM of the donor on vinculin (EGFP or mTFP1) with mScarlet-I on RIAM as acceptor; transiently transfected MEF Vinc-/- fixed in 4% PFA; also with the ROCK inhibitor H1152 (no change).
The next assay addresses mTFP1-vinculin (UniProt P18206). The description is as above.

As to “RIAM-mScarlet (RIAM C-terminally tagged with mScarlet-I) (from UniProt Q7Z5R6 1-666) (natural protein)”, the FRET efficiency with EGFP-vinculin amounted to 13.5%.

For “mScarlet-RIAM (RIAM N-terminally tagged with mScarlet-I) (from UniProt Q7Z5R6 1-666) (natural protein)”, the FRET efficiency in the assay with EGFP-vinculin amounted to 16.4%; in the assay with mTFP1-vinculin it was 20%.
